Data from the supplement of paper PMC9170038.

Test system: MS2 coat protein
Assay: apparent KD of MS2 coat protein; designed switch direction (-1 OFF switch, 1 ON switch): -1; higher = weaker reporter binding
Outline: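 An oligonucleotide input, 200 uM small-molecule ligand, or no input was present during titration of SNAP-549-labelled MS2 coat protein, which was doubled from 0.7 or 1.5 nM to 3 µM. Designed RNA switches had been transcribed on Illumina chips by stalled E. coli RNA polymerase. Apparent KD per design is the median over clusters of curves fitted to normalised cluster fluorescence.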

[1] = Eterna round: R95, input ligand: microRNA oligo, concentration not stated
[2] = Eterna round: R95, input ligand: FMN 200 uM
[3] = Eterna round: R95, input ligand: none

Sequence | apparent KD of MS2 coat protein [1] [nM] | apparent KD of MS2 coat protein (input ligand: FMN 200 uM) [nM] | apparent KD of MS2 coat protein (input ligand: none) [nM] | apparent KD of MS2 coat protein [2] [nM] | apparent KD of MS2 coat protein [3] [nM]
GACUGCCGAGGAUAUACAUGAGGAUCACCCAUGUGCUUCAGUAUCGAAAGAUGCAUGGGUAGAAGGCGGUAGUC [LRO-Excl3-10] (puzzle: Exclusion 3) | 172 |  |  |  | 
GACUGCUGAGGAUAUACAUGAGGAUCACCCAUGUGCUUCAGCUACGAGAGUAGCAUUGGUAGAAGGUAGUAGUC [LRO-Excl3-04] (puzzle: Exclusion 3) | 11.1 |  |  |  | 
GACUGUCUAGGAUAUGCGACGUUUUACAUGAGGAUCACCCAUGUUGUCUGCGUGUGUGUGGCAGAAGGAGACAAAC [Eses] (puzzle: Exclusion 5) | 13.3 |  |  |  | 
GACUUCUCUGAGGAUAUUGCAUCAUACGAUUUAUAAGAAGGCAGAACAUGAGGAUCACCCAUGUGGGUUUUUAG [Bingo-Bango-30] (Eterna round: R97, puzzle: Exclusion 6) |  | 102 | 55 |  | 
GAGAAACAUGAGGAUCACCCAUGUGAGGAUAUGAAAAAGAAAAGAAAAGAAAGAAGAAUCAGAAGGCACAAAGG [salish99-ex1_r3_078] (puzzle: Exclusion 1) | 30.8 |  |  | 45.3 | 39.1
GAGAACGUAGGAUAUACAUGAGGAUCACCCAUGUGAGGAAGGAGUAGGAAGAGUGGAAGUAGAAGGACGGAGAG [JR_Exclu3_Sub072] (puzzle: Exclusion 3) | 21.9 |  |  | 47.4 | 34.9
GAGGAACAUGAGGAUCACCCAUGUAAGGAUAUGCAAAGCGAGGUAGUAGAAGGAGAAGGCAGAAGGUACACGGA [JR_Exclu1_Sub075] (puzzle: Exclusion 1) | 29.6 |  |  | 31.9 | 45.3
GAGGCUAAAGGAUAUACAUGAGGAUCACCCAUGUGGAGGAAGGUUAGAUGAGGAGAAGGUAGAAGGUUAGGCGG [JR_Exclu3_Sub094] (puzzle: Exclusion 3) | 31.1 |  |  |  | 
GAGUGACAUGAGGAUCACCCAUGUGAGGAUAUCGGACGGACCAAAUUAACAAUAAAUGCGAGAAGGCGCAUCGG [Exclusion 1 V16] (puzzle: Exclusion 1) | 43.3 |  |  | 46.7 | 54.3
GAGUGACAUGAGGAUCACCCAUGUGAGGAUAUCGGACGGACCUUGUUAGCUUCCGCCGCGAGAAGGCACAUCGG [Exclusion 1 V25] (puzzle: Exclusion 1) | 94.3 |  |  |  | 
GAGUGACAUGAGGAUCACCCAUGUGAGGAUAUCGGCCGGACCUUGUUAGCUUCCGCCGCGAGAAGGCACAUCGG [Exclusion 1 V28] (puzzle: Exclusion 1) | 55.9 |  |  |  | 
GAGUGCUGAGGAUAUACAUGAGGAUCACCCAUGUGCUUCAGCUAGGAGACUAGCAUUCGUAGAAGGCAGUACUC [Mod of lroppy 22 - Jieux - Exclusion 3] (Eterna round: R97, puzzle: Exclusion 3) |  | 42.6 | 14.7 |  | 
GAGUGUUGAGGAUAUACAUGAGGAUCACCCAUGUGCUUCAGCUAGGAGACUAGCAUUGGUAGAAGGCAGUACUC [Mod of lroppy 9 - Jieux - Exclusion 3] (Eterna round: R97, puzzle: Exclusion 3) |  | 48.3 | 37.1 |  | 
GAGUUAGCGUGAGGAAUAUACAUGAGGAUCACCCAUGUUAGCUUAUAUAUUGCUCGUCUUAUAACAACAAUUAACUG [Mod JX-Electric-eye2] (Eterna round: R97, puzzle: Sensor, turn-off variant 1) |  | 25.4 | 27.2 |  | 
